The numbers were not newly measured in article PMC5580235, which cites them from elsewhere.

Where two headings read alike, the source gives them in different places.

For data set [1], the target named is ICAM-1 (Homo sapiens) (UniProt P05362).
For data set [2] the target is unchanged. This is another data set of the same source.
The target is the same in data set [3]. This is another data set of the same source.

ICAM-1 (Homo sapiens), sequence (P05362 28-480): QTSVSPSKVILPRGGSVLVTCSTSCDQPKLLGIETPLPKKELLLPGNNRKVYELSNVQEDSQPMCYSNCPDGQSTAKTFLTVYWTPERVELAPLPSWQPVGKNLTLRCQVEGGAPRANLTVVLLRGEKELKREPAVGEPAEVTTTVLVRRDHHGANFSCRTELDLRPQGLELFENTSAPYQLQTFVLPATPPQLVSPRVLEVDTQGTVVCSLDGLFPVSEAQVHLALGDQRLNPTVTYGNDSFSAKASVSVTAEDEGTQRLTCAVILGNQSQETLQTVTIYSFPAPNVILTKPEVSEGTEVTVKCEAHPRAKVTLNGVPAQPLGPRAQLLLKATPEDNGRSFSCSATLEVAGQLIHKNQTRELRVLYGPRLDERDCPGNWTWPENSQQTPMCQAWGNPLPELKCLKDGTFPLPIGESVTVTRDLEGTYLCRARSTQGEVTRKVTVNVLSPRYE
LFA-1 (intermediate affinity form), sequence (P20701 26-1090): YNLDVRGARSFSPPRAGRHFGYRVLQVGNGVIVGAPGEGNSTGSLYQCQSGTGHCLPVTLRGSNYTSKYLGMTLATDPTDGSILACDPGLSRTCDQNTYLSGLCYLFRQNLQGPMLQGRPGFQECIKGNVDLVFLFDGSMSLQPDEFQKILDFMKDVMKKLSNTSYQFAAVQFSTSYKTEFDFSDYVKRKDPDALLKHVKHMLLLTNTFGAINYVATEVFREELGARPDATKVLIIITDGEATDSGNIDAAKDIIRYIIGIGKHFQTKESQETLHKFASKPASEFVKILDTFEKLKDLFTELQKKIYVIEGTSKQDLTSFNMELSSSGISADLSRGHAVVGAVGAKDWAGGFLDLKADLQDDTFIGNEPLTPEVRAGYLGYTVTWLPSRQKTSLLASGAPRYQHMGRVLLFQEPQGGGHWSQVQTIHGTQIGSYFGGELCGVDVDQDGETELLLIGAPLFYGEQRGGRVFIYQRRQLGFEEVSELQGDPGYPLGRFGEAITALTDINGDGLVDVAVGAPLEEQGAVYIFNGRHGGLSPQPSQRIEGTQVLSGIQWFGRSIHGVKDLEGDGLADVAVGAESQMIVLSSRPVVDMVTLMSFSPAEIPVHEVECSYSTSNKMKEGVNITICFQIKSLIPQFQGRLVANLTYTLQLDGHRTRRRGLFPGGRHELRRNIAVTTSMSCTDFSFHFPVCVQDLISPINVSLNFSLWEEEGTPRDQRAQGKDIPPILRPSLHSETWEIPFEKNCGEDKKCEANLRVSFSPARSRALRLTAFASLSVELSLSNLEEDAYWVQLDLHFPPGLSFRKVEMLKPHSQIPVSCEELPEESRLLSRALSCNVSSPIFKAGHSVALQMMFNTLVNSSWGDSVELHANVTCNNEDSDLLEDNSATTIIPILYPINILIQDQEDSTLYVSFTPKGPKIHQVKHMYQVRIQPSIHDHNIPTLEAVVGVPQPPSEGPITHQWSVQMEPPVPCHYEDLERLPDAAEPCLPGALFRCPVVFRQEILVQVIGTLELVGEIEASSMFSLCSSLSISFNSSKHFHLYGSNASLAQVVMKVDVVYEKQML
LFA-1 (intermediate affinity form), sequence (P05107 23-700, further chain): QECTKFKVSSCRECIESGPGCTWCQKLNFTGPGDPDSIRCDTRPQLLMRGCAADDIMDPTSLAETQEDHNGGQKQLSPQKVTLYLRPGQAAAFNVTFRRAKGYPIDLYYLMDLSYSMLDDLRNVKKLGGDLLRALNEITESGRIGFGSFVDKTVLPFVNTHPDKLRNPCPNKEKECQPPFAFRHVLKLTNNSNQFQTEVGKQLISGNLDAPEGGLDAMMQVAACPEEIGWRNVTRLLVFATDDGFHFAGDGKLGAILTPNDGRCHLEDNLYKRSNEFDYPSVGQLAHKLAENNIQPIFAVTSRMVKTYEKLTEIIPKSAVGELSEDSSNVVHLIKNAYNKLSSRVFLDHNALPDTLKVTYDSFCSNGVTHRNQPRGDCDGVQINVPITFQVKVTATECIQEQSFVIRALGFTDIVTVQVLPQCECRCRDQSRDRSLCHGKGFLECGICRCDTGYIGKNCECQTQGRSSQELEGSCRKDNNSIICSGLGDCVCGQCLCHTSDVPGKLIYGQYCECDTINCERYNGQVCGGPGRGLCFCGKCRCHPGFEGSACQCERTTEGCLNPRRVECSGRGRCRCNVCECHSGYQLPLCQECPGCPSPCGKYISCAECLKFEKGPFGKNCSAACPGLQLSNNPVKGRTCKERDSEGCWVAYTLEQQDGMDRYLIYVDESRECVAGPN
LFA-1 (high affinity form), sequence (P20701 26-1090): as the sequence (P20701 26-1090) above
LFA-1 (high affinity form), sequence (P05107 23-700, further chain): as the sequence (P05107 23-700, further chain) above
LFA-1 (low affinity form), sequence (P20701 26-1090): as the sequence (P20701 26-1090) above
LFA-1 (low affinity form), sequence (P05107 23-700, further chain): as the sequence (P05107 23-700, further chain) above

The Kd is the concentration at which binding is half-saturated. As for “LFA-1 (high affinity form) (from UniProt P20701)”, the dissociation constant (Kd) with ICAM-1 (Homo sapiens) [1] is 0.15 µM.
For the substance “LFA-1 (intermediate affinity form) (from UniProt P20701)”, the dissociation constant Kd in the data set with ICAM-1 (Homo sapiens) [2] was 15 µM.
Regarding “LFA-1 (low affinity form) (from UniProt P20701)”, in the data set with ICAM-1 (Homo sapiens) [3], the Kd is 1500 µM.
